The RNAGym collection of RNA variant scans (doi:10.7554/elife.80360)

B1: CPEB3 Ribozyme (parent)
chain: GGGGGCCACAGCAGAAGCGUUCACGUCGCGGCCCCUGUCAGAUUCUGGUGAAUCUGCGAAUUCUGCUGU

Variants of: B1
Assay: self-cleavage, relative activity (ratio to wild type); higher = more cleavage; co-transcriptional

In order of falling self-cleavage:
1. GGGGGACAGAGCAGAAGCGUUCACGUCGCGGCCCCUGUCAGAUUCUGGUGAAUCUGCGAAUUCUGCUGU [C6A C9G]  1.02
2. GGGGGACACAGCAGAAGCGUUCACGUCGCGUCCCCUGUCAGAUUCUGGUGAAUCUGCGAAUUCUGCUGU [C6A G31U]  0.986
3. GGGGGACAAAGCAGAAGCGUUCACGUCGCGGCCCCUGUCAGAUUCUGGUGAAUCUGCGAAUUCUGCUGU [C6A C9A]  0.961
4. GGGGGACACAGCAGAAGCGUUCACGUCGCGACCCCUGUCAGAUUCUGGUGAAUCUGCGAAUUCUGCUGU [C6A G31A]  0.775
5. GGGGGACACAGCAGAAGCGUUCACGUCGCGCCCCCUGUCAGAUUCUGGUGAAUCUGCGAAUUCUGCUGU [C6A G31C]  0.762
6. GGGGGACACAGCAGAAGCGUUCACGUCGCGGCCCCUGUCAGAUUCUGGUUAAUCUGCGAAUUCUGCUGU [C6A G50U]  0.727
7. GGGGGACACAGCAGAAGCGUUCACGUCGCGGCCCCUGUCAGAUUCUAGUGAAUCUGCGAAUUCUGCUGU [C6A G47A]  0.712
8. GGGGGACACAGCAGAAGCGUUCACGUCGCGGCCCCUGUCAGAUUUUGGUGAAUCUGCGAAUUCUGCUGU [C6A C45U]  0.708
9. GGGGGACACAGCAGAAGCGUUCACGUCGCGGCCCCUGUCAGAUUCUGCUGAAUCUGCGAAUUCUGCUGU [C6A G48C]  0.693
10. GGGGGACACAGCAGAAGCGUUCACGUCGCGGCCCCUGUCAGAUUCUCGUGAAUCUGCGAAUUCUGCUGU [C6A G47C]  0.689
11. GGGGGACACAGCAGAAGCGUUCACGUCGCGGCCCCUGUCAGAUUCUGGUGAAUUUGCGAAUUCUGCUGU [C6A C54U]  0.67
12. GGGGGACACAGCAGAAGCGUUCACGUCGCGGCCCCUGUCAGAUUCUUGUGAAUCUGCGAAUUCUGCUGU [C6A G47U]  0.661
13. GGGGGACACAGCAGAAGCGUUCACGUCGCGGCCCCUGUCAGAUUCUGGUGAAUCUGCGAAUUCUGUUGU [C6A C66U]  0.641
14. GGGGGACACAGCAGAAGCGUUCACGUCGCGGCCCCUGUCAGGUUCUGGUGAAUCUGCGAAUUCUGCUGU [C6A A42G]  0.609
15. GGGGGACACAGCAGAAGCGUUCACGUCGCGGCCCCUGUCAGAUUCUGGUGGAUCUGCGAAUUCUGCUGU [C6A A51G]  0.604
16. GGGGGACACAGCAGAAGCGUUCACGUCGCGGCCCCUGUCAGAUUGUGGUGAAUCUGCGAAUUCUGCUGU [C6A C45G]  0.595
17. GGGGGACACAGCAGAAGCGUUCACGUCGCGGCCCCUGUCAGAUUCUGGUCAAUCUGCGAAUUCUGCUGU [C6A G50C]  0.594
18. GGGGGACACAGCAGAAGCGUUCACGUCGCGGCCCCUGUCAGAUUCUGGUGAGUCUGCGAAUUCUGCUGU [C6A A52G]  0.58
19. GGGGGACACAGCAGAAGCGUUCACGUCGCGGCCCCUGUCAGAUUCUGGUGAUUCUGCGAAUUCUGCUGU [C6A A52U]  0.559
20. GGGGGACACAGCAGAAGCGUUCACGUCGCGGCCCCUGUCAGAUUCUGGUGUAUCUGCGAAUUCUGCUGU [C6A A51U]  0.545
21. GGGGGACACAACAGAAGCGUUCACGUCGCGGCCCCUGUCAGAUUCUGGUGAAUCUGCGAAUUCUGCUGU [C6A G11A]  0.536
22. GGGGGACACAGCAGAAGCGUUCACGUCGCGGCCCCUGUCAGAUUCUGGUGAAUCUGCGGAUUCUGCUGU [C6A A59G]  0.464
23. GGGGGACACAGCAGAAGCGUUCACGUCGCGGCCCCUGUCAGAUUCUGGUGCAUCUGCGAAUUCUGCUGU [C6A A51C]  0.458
24. GGGGGACACAUCAGAAGCGUUCACGUCGCGGCCCCUGUCAGAUUCUGGUGAAUCUGCGAAUUCUGCUGU [C6A G11U]  0.448
25. GGGGGACACAGCAGAAGCGUUCACGUCGCGGCCCCUGUCAGAUUCUGGUGAAUCUGCAAAUUCUGCUGU [C6A G58A]  0.443
26. GGGGGACACAGCAGAAGCGUUCACGUCGCGGCCCCUGUCAGAUUCUGGUGAAUCUGCGAAUUCUGGUGU [C6A C66G]  0.44
27. GGGGGACACAGCAGAAGCGUUCACGUCGCGGCCCCUGUUAGAUUCUGGUGAAUCUGCGAAUUCUGCUGU [C6A C39U]  0.416
28. GGGGGACACAGCAGAAGCGUUCACGUCGCGGCCCCUGUCAGAUUCUGGUGAAUCUGCGAAUUCUGAUGU [C6A C66A]  0.386
29. GGGGGACACAGCAGAAGCGUUCACGUCGCGGACCCUGUCAGAUUCUGGUGAAUCUGCGAAUUCUGCUGU [C6A C32A]  0.349
30. GGGGGACACAGCAGAAGCGUUCACGUCGCGGCUCCUGUCAGAUUCUGGUGAAUCUGCGAAUUCUGCUGU [C6A C33U]  0.347
31. GGGGGACACAGCAGAAGCGUUCACGUCGCGGCCUCUGUCAGAUUCUGGUGAAUCUGCGAAUUCUGCUGU [C6A C34U]  0.339
32. GGGGGACACAGCAGAAGCGUUCACGUCGCAGCCCCUGUCAGAUUCUGGUGAAUCUGCGAAUUCUGCUGU [C6A G30A]  0.338
33. GGGGGACACAGCAGAAGCGUUCACGUCGCGGCCCCUGUCAGAUUCUGGUGAAUCUGCGAGUUCUGCUGU [C6A A60G]  0.326
34. GGGGGACACAGGAGAAGCGUUCACGUCGCGGCCCCUGUCAGAUUCUGGUGAAUCUGCGAAUUCUGCUGU [C6A C12G]  0.26
35. GGGGGACACAGCAGAAGCGUUCACGUCGCGGCCCCUGUCAAAUUCUGGUGAAUCUGCGAAUUCUGCUGU [C6A G41A]  0.241
36. GGGGGACACAGCAGAAGCGUUCACGUCGCGGCCCCUGUCAGAUUCUGGUGAAUCUGCGAAUUAUGCUGU [C6A C63A]  0.237
37. GGGGGACACAGCAGAAGCGUUCACGUCGUGGCCCCUGUCAGAUUCUGGUGAAUCUGCGAAUUCUGCUGU [C6A C29U]  0.234
38. GGGGGACACAGCAGAAGCGUUCACGUCGCGGCCCCUGUAAGAUUCUGGUGAAUCUGCGAAUUCUGCUGU [C6A C39A]  0.231
39. GGGGGACACAGCAGAAGCGUUCACGUCGCGGCCCCUGUCAGAUUCUGGUGAAUCUGCGAUUUCUGCUGU [C6A A60U]  0.226
40. GGGGGACACAGCAGAAGCGUUCACGUCGCGGCCCCUGUCAGAUUCUGGUGAAUCUCCGAAUUCUGCUGU [C6A G56C]  0.225
41. GGGGGACACAGCAGAAGCGUUCACGUCGCGGCCCCUGUCAGAUUCUGGUGAAUCUGGGAAUUCUGCUGU [C6A C57G]  0.22
42. GGGGGACACAGCAGAAGCGUUCACGUCGAGGCCCCUGUCAGAUUCUGGUGAAUCUGCGAAUUCUGCUGU [C6A C29A]  0.213
43. GGGGGACACAGCAGAAGCGUUCACGUCGCGGCCCCUGUCAGAUUCUGGUGAAUCUGAGAAUUCUGCUGU [C6A C57A]  0.182
44. GGGGGACACAGCAGAAGCGUUCACGUCGCGGCCCCUGUCAGAUUCUGGUGAAUCUGCGACUUCUGCUGU [C6A A60C]  0.17
45. GGGGGACACAGCAGAAGCGUUCACGUCGCGGCCCCUGUCAGAUUCUGGUGAAUCUGUGAAUUCUGCUGU [C6A C57U]  0.168
46. GGGGGACACAGCAGAAGAGUUCACGUCGCGGCCCCUGUCAGAUUCUGGUGAAUCUGCGAAUUCUGCUGU [C6A C18A]  0.167
47. GGGGGACACAGCAGAAGCGUUAACGUCGCGGCCCCUGUCAGAUUCUGGUGAAUCUGCGAAUUCUGCUGU [C6A C22A]  0.165
48. GGGGGACACAGCAGAAGCGUUCACGUCUCGGCCCCUGUCAGAUUCUGGUGAAUCUGCGAAUUCUGCUGU [C6A G28U]  0.163
49. GGGGGACACAGCAGAAGCGUUCAAGUCGCGGCCCCUGUCAGAUUCUGGUGAAUCUGCGAAUUCUGCUGU [C6A C24A]  0.162
50. GGGGGACACAGAAGAAGCGUUCACGUCGCGGCCCCUGUCAGAUUCUGGUGAAUCUGCGAAUUCUGCUGU [C6A C12A]  0.16
51. GGGGGACACAGCAGAAGCGUUCACGUUGCGGCCCCUGUCAGAUUCUGGUGAAUCUGCGAAUUCUGCUGU [C6A C27U]  0.159
52. GGGGGACACAGCAGAAGCGUUCACGUCGCUGCCCCUGUCAGAUUCUGGUGAAUCUGCGAAUUCUGCUGU [C6A G30U]  0.157
53. GGGGGACACAGCAGAAGCGUUCACGUCCCGGCCCCUGUCAGAUUCUGGUGAAUCUGCGAAUUCUGCUGU [C6A G28C]  0.155
54. GGGGGACACAGCAGAAGCGUUCACGUAGCGGCCCCUGUCAGAUUCUGGUGAAUCUGCGAAUUCUGCUGU [C6A C27A]  0.154
55. GGGGGACACAGCAGAAGCGUUCACGUCGCGGCCCCUAUCAGAUUCUGGUGAAUCUGCGAAUUCUGCUGU [C6A G37A]  0.149
56. GGGGGACACAGCAGAAGCGUUCACGUCGCGGGCCCUGUCAGAUUCUGGUGAAUCUGCGAAUUCUGCUGU [C6A C32G]  0.147
57. GGGGGACACAGCAGAAGUGUUCACGUCGCGGCCCCUGUCAGAUUCUGGUGAAUCUGCGAAUUCUGCUGU [C6A C18U]  0.146
58. GGGGGACACAGCAGAAGGGUUCACGUCGCGGCCCCUGUCAGAUUCUGGUGAAUCUGCGAAUUCUGCUGU [C6A C18G]  0.145
59. GGGGGAAACAGCAGAAGCGUUCACGUCGCGGCCCCUGUCAGAUUCUGGUGAAUCUGCGAAUUCUGCUGU [C6A C7A]  0.143
60. GGGGGACACAGCAGAAGCGUUCACGUCGCGGCCCCUUUCAGAUUCUGGUGAAUCUGCGAAUUCUGCUGU [C6A G37U]  0.142
61. GGGGGACACAGCAGAAGCGUUCACGUCACGGCCCCUGUCAGAUUCUGGUGAAUCUGCGAAUUCUGCUGU [C6A G28A]  0.138
62. GGGGGACACAGCAGAAGCGUUCACAUCGCGGCCCCUGUCAGAUUCUGGUGAAUCUGCGAAUUCUGCUGU [C6A G25A]  0.136
63. GGGGGACACAGCAGAAGCGUUCACCUCGCGGCCCCUGUCAGAUUCUGGUGAAUCUGCGAAUUCUGCUGU [C6A G25C]  0.133
64. GGGGGACACAGCAAAAGCGUUCACGUCGCGGCCCCUGUCAGAUUCUGGUGAAUCUGCGAAUUCUGCUGU [C6A G14A]  0.128
65. GGGGGACACAGCAGAAGCGUUCACGUCGCGGUCCCUGUCAGAUUCUGGUGAAUCUGCGAAUUCUGCUGU [C6A C32U]  0.123
66. GGGGGACACAGCAGAAGCGUUCACGUGGCGGCCCCUGUCAGAUUCUGGUGAAUCUGCGAAUUCUGCUGU [C6A C27G]  0.122
67. GGGGGACACAGCAGAAGCGUUCACGUCGCGGCCCCUCUCAGAUUCUGGUGAAUCUGCGAAUUCUGCUGU [C6A G37C]  0.122
68. GGGGGACACAGCAGAAUCGUUCACGUCGCGGCCCCUGUCAGAUUCUGGUGAAUCUGCGAAUUCUGCUGU [C6A G17U]  0.119
69. GGGGGACACAGCAUAAGCGUUCACGUCGCGGCCCCUGUCAGAUUCUGGUGAAUCUGCGAAUUCUGCUGU [C6A G14U]  0.116
70. GGGGGACACAGCAGAACCGUUCACGUCGCGGCCCCUGUCAGAUUCUGGUGAAUCUGCGAAUUCUGCUGU [C6A G17C]  0.115
71. GGGGGACACAGCAGAAGCGUUCACGUCGCGGCCCAUGUCAGAUUCUGGUGAAUCUGCGAAUUCUGCUGU [C6A C35A]  0.114
72. GGGGGACACAGCAGAAGCGUUCACGUCGCGGCGCCUGUCAGAUUCUGGUGAAUCUGCGAAUUCUGCUGU [C6A C33G]  0.108
73. GGGGGACACAGCAGAAGCCUUCACGUCGCGGCCCCUGUCAGAUUCUGGUGAAUCUGCGAAUUCUGCUGU [C6A G19C]  0.107
74. GGGGGACACAGCAGAAGCAUUCACGUCGCGGCCCCUGUCAGAUUCUGGUGAAUCUGCGAAUUCUGCUGU [C6A G19A]  0.105
75. GGGGGACACAGCACAAGCGUUCACGUCGCGGCCCCUGUCAGAUUCUGGUGAAUCUGCGAAUUCUGCUGU [C6A G14C]  0.101
76. GGGGGACACAGCAGAAGCGUUCACUUCGCGGCCCCUGUCAGAUUCUGGUGAAUCUGCGAAUUCUGCUGU [C6A G25U]  0.1
77. GGGGGACACAGCAGAAGCGUUUACGUCGCGGCCCCUGUCAGAUUCUGGUGAAUCUGCGAAUUCUGCUGU [C6A C22U]  0.0847
78. GGGGGACACAGCAGAAGCGUUCAGGUCGCGGCCCCUGUCAGAUUCUGGUGAAUCUGCGAAUUCUGCUGU [C6A C24G]  0.0842
